B1: TPR t1 (parent)
chain: GACCAAUCUGCCCUCAGAGCUCGAGAACAUCUUCGGAUGCAGAGGAGGCAGGCUUCGGUGGCGCGAUAGCGCCAACGUCCUCAACCUCCAAUGCAUCCCACCACAUGAUGAUGCCUGAAGAGCCUUGGUUUUUUG

Variants of: B1
Experiment: polymerase ribozyme fitness, log enrichment relative to wild type (log ratio); higher = more active; in vitro selection for triplet polymerase activity
Outline: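 Frozen incubation at −7 °C formed the core of a single, triplicate in vitro selection round applied to PCR-built, transcribed mutant libraries of each subunit of a heterodimeric triplet polymerase ribozyme. Extended constructs were gel-excised, captured with streptavidin beads and amplified by RT-PCR, and input and output libraries were Illumina-sequenced with a filter of ≥10 input reads and ≥1 read per output. Fitness is the logarithm of genotype enrichment relative to wild-type enrichment, with inverse-variance-weighted replicate averaging, and the logarithm is base 2.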

| Variant | polymerase ribozyme fitness (log ratio) |
| --- | --- |
| C56U U106A G120A | 0.351 |
| C12A C88U G110C | -4.61 |
| A16U U78A U92A | -4.78 |
| C70A G93A U116C C123A | -5.19 |
| C28U G60C A118G | -2.75 |
| U21A G128C | -2.29 |
| C12A G110A C123U | -1.84 |
| C56G G61C | -5.99 |
| U59A G117U | -2.68 |
| C22A G48U G63A C94G G120A | -5.73 |
| A5C U7G U54A C72U G110C | -4.62 |
| C88A U126A | -3.12 |
| C12A A41C C72U U92G A111G | -1.91 |
| C3U G45A A105U | -3.3 |
| A2C A5C C114G C124A | -3.41 |
| C70U A74C C101U | -0.934 |
| C64A G113A | -6.92 |
| C85U C114G | -3.53 |
| G45C U125A | -1.86 |
| A2U U9C C12A G51U C53A U55A G61U U78C G127U | -6.49 |
| G39U C73U G77A | -1.39 |
| U14G C72G | -2.44 |
| C12A A41U A43U C104U U129G | -4.67 |
| U7C G10A C11G G93U | -1.34 |

| Variant | polymerase ribozyme fitness (log ratio) |
| --- | --- |
| G60C A84C | -0.975 |
| U21A C49G U92C C104U | -2.2 |
| C13G A50U | -3.13 |
| G51U U78C | -4.43 |
| A43U G93C G117C | -4.65 |
| A26G A27U A74G C115U C124U | -5.7 |
| U7G A43G G47U G61A U96A | -2.6 |
| C20A U32G G35C G93A G113A U125A | -6.57 |
| G52A C70U G120A U132A | 0.354 |
| A27U G48U A50U C123U | -2.86 |
| G42A U78A | -2.26 |
| C82U U87A | -0.441 |
| G39U U54G C73G | -4.41 |
| U7A A27U G48U U87C G120U | -2.16 |
| U59G C86U A95U C115A C123U | -2.76 |
| G45U C56A | -2.01 |
| G42A C94G U130G | -3.82 |
| A84C U87A U96A | -1.65 |
| A2G A18C C115A C123U | -1.44 |
| C3U C8G G45U U54A C72U U87C U130A | -1.62 |
| C8G C12G A46U | -0.837 |
| G23A C40A | -4.86 |
| C53G C114A U125C | -2.07 |
| A29U C70U | -2.15 |

| Variant | polymerase ribozyme fitness (log ratio) |
| --- | --- |
| U7G U96A A121C | 0.553 |
| C97U C114U | -2.99 |
| G35U G36U C124U | -5.29 |
| G48C C49A | -2.13 |
| G36C G128C | -4.43 |
| C4G C15A A16U C53A U78C C115U | -3.67 |
| G69U C114G | -0.996 |
| G10A C72G G77C A95G C101G | -3.03 |
| C56U G120C G127U | 2.09 |
| A75C G77C | -1.58 |
| U38A G71U C80U A95G C124A | -0.159 |
| A18G G113C | -1.3 |
| C99U A111C | -2.83 |
| C34U G122A | -4.6 |
| A29U G48U C73G U112A | -0.987 |
| C73U C80U | -0.17 |
| G47C C56U U106A C123A | -1.35 |
| C20G G36A A43C U96G G117C | -5.42 |
| A41C C53G C85A A111U U112A U116C | -6.24 |
| C13A C49U G51U G69U A111U G120A | -6.99 |
| C4U A6U G45A C80U C101A | -3.66 |
| C28A A50G C62U G65U G69U U112A | -3.65 |
| U7C C62A G110A A119C | -4.23 |
| A6U U55C C76U | -0.164 |

| Variant | polymerase ribozyme fitness (log ratio) |
| --- | --- |
| G69A C114A | -5.11 |
| C20A G117A | -3.21 |
| U54C C115A | -0.609 |
| G52U A68U A83C C101G C115U | -7.12 |
| U78C U81A U87G C123G | 1.68 |
| A91U G128A | -3.34 |
| C8A C53G C56A C70U C97U U112A C124U | -0.44 |
| C53U C97U | -0.844 |
| C13G C20A C49U C64U U96G | -4.56 |
| C86U G117A | -1.56 |
| C40A C73A U81C C104U | -0.977 |
| G63A C85A | -2.01 |
| G44A C70A C89A | -4.72 |
| A16G U112A A119G | 2.06 |
| G52U A95G | -0.694 |
| A68U | -7.01 |
| C11U A18C A29C C101A G110C | -7.19 |
| C70U G113C | -3.06 |
| U9A C64U A66G | -3.02 |
| U33G C72A C85G A90G G120C U129G | -7.02 |
| C31G G57A G58C G63A U112C | -7.16 |
| G51C G61U A74C C114A G117A | -7.43 |
| C98A G120U | -4.6 |
| G39U G60U | -0.635 |

| Variant | polymerase ribozyme fitness (log ratio) |
| --- | --- |
| A84C C123U U133G | 0.656 |
| G77A U81A | -1.01 |
| A41C G71U | -0.988 |
| U9G C62A | -0.542 |
| C89A C97U | -2.16 |
| G71U C101G U106G | -3.61 |
| A2U A5C C13U G48A G69A | -5.8 |
| C56A A121U | 1.42 |
| C56A A121G | 1.77 |
| U38C G63C C102U | -3.7 |
| G57A C72U | -1.29 |
| U38G C40U | -1.03 |
| C12U A46U A121C | -0.0492 |
| G47U G57A C73A C85G U106A U133A | -5.19 |
| A41C U106G C114U U130A | -4.41 |
| U96A A121G | 0.527 |
| G47A C56U C94U | -1.1 |
| C4U G42C G60U C88G C99G A111U U134A | -5.4 |
| A26U U54A G110A | -5.04 |
| G63U | -1.18 |
| A18C U87G C89U | -2.03 |
| G45A G63A C104A | -3.61 |
| G58A U59C C70G | -4.95 |
| U131G | -0.452 |

| Variant | polymerase ribozyme fitness (log ratio) |
| --- | --- |
| G36U G107C | -5.19 |
| C34U C88U | -4.26 |
| G17U C34A | -3.65 |
| U112C C124G G128A | -0.155 |
| A66U U81A | -1.96 |
| A105C C114U G120C | -2.29 |
| A29G A50U C73A | -2.36 |
| C82G A83C C115G G122A | -2.67 |
| C12U U21G C62G A74C U78A | -3.33 |
| C8A C12U A90U G117C | -0.863 |
| C20A U96G | -3.33 |
| C13A A16U G71C G120C | -0.814 |
| A43U C124A | 0.127 |
| A2C A27C G127C G135U | -6.34 |
| C70U U109A | -4.47 |
| U38A G60U C62A A74U C115G | -6.4 |
| U112A G120C | -0.182 |
| C56U G113U C123G U130G | -2.36 |
| C70A U112C | 0.318 |
| U109A G135U | -4.82 |
| U9C G60A U130A | 0.434 |
| G61C A84C | -1.86 |
| C94G U116C A118C | -3.89 |
| G57A C64U U78C U87C C104U G113A | -1.61 |

| Variant | polymerase ribozyme fitness (log ratio) |
| --- | --- |
| G71C C98U | -1.75 |
| A26G A50G C56G C82G | -3.42 |
| C34A G65U C82G A111G U116G | -6.99 |
| C86A A105C | -2.57 |
| C89U C97G | -5.4 |
| G71U C101A | -1.24 |
| C11G | 0.294 |
| G39U G52A U55C C56A C80U | -1.08 |
| C3U C12A C79G | -2.97 |
| C104U U130G | -0.0774 |
| C13A G36C | -1.87 |
| C8G C20U C49U | -1.11 |
| A5U C11G C12U G61U A111C G113A | -4.88 |
| C8G G45U G63C A83U A91C U112A | -1.6 |
| A75U G128A | -1.64 |
| G58A A83U U106A | -1.14 |
| G36A C85A G117A | -3.37 |
| G51U G52U C56A U78A | -3.39 |
| G44U G45A U54A C72G | -3.66 |
| A18U G71C C104A | -6.56 |
| A2U C11A G51A A66G G69U C98U | -4.43 |
| G45U A66C G93C U96C C115A | -4.28 |
| G69U C79U C80U U116C | -0.478 |

— the RNAGym collection of RNA variant scans (doi:10.1073/pnas.2313332121)
